B1: Band 3 anion transport protein, P02730 (parent)
chain: MEELQDDYEDMMEENLEQEEYEDPDIPESQMEEPAAHDTEATATDYHTTSHPGTHKVYVELQELVMDEKNQELRWMEAARWVQLEENLGENGAWGRPHLSHLTFWSLLELRRVFTKGTVLLDLQETSLAGVANQLLDRFIFEDQIRPQDREELLRALLLKHSHAGELEALGGVKPAVLTRSGDPSQPLLPQHSSLETQLFCEQGDGGTEGHSPSGILEKIPPDSEATLVLVGRADFLEQPVLGFVRLQEAAELEAVELPVPIRFLFVLLGPEAPHIDYTQLGRAAATLMSERVFRIDAYMAQSRGELLHSLEGFLDCSLVLPPTDAPSEQALLSLVPVQRELLRRRYQSSPAKPDSSFYKGLDLNGGPDDPLQQTGQLFGGLVRDIRRRYPYYLSDITDAFSPQVLAAVIFIYFAALSPAITFGGLLGEKTRNQMGVSELLISTAVQGILFALLGAQPLLVVGFSGPLLVFEEAFFSFCETNGLEYIVGRVWIGFWLILLVVLVVAFEGSFLVRFISRYTQEIFSFLISLIFIYETFSKLIKIFQDHPLQKTYNYNVLMVPKPQGPLPNTALLSLVLMAGTFFFAMMLRKFKNSSYFPGKLRRVIGDFGVPISILIMVLVDFFIQDTYTQKLSVPDGFKVSNSSARGWVIHPLGLRSEFPIWMMFASALPALLVFILIFLESQITTLIVSKPERKMVKGSGFHLDLLLVVGMGGVAALFGMPWLSATTVRSVTHANALTVMGKASTPGAAAQIQEVKEQRISGLLVAVLVGLSILMEPILSRIPLAVLFGIFLYMGVTSLSGIQLFDRILLLFKPPKYHPDVPYVKRVKTWRMHLFTGIQIICLAVLWVVKSTPASLALPFVLILTVPLRRVLLPLIFRNVELQCLDADDAKATFDEEEGRDEYDEVAMPV

Variants of: B1
Settings: Homo sapiens, reversible: No, structure 1HYN, whole UniProt chain shown; for denaturant midpoint (higher = more stable): 24 °C, Urea, Fluorescence, sodium phosphate sodium borate 50 mM 50 mM, sodium chloride 70 mM; for Tm / change of melting temperature, mutant - wild type (higher = more stable): Thermal, sodium phosphate 10 mM
[1] = pH 7.5, DSC, sodium chloride 50 mM
[2] = pH 7, CD, sodium fluoride 50 mM

Variant | denaturant midpoint (higher = more stable) (pH 7) [M] | Tm [1] [°C] | change of melting temperature, mutant - wild type (higher = more stable) [1] [°C] | Tm [2] [°C] | change of melting temperature, mutant - wild type (higher = more stable) [2] [°C]
E40K | 4.73 | 64.9 | -1.3 |  | 
K56E |  | 66.5 | 0.3 | 67.7 | -1.3
P327R | 4.56 |  |  | 64 | -5
G130R | 4.85 | 65.5 | -0.7 | 68.7 | -0.3

Source: FireProtDB (doi:10.1021/bi051692c)
